# In patent US20190119357A1, “MESSENGER RIBONUCLEIC ACIDS FOR THE PRODUCTION OF INTRACELLULAR BINDING POLYPEPTIDES AND METHODS OF USE THEREOF” (ModernaTX, Inc., priority 2015, published 2019):
# Entries after “also recorded” stand apart in the source; their conditions may differ.
# What was measured:
# Hep3B SC tumors = assay: Combination with sorafenib in SCID mice bearing Hep3B SC tumors; format: in vivo; details: mmRNA with miR122 binding site, 1.5 mg/kg IV weekly alone, three weeks, end of study
# Experimental: SCID mice bearing Hep3B SC tumors (tumor size range 140-227 mm^3; average=183 mm^3) were dosed over a three week period with a combination of 0.5% methyl cellulose daily and SQT IV at 1.5 mg/kg alone weekly (Days 1, 8 and 15; Group 1), Sorafenib (in 0.5% methyl cellulose) at 10 mg/kg orally daily alone (Group 2), mmRNA encoding SQT-PUMA-BH3 (comprising a miR122 binding site) weekly at 1.5 mg/kg IV alone (Group 3) or a combination of mmRNA encoding SQT-PUMA-BH3 (with miR122 binding site) at 1.5 mg/kg IV weekly with sorafenib at 10 mg/kg orally daily (Group 4; 10 animals per group).
# HeLa cells = assay: PARP-1 cleavage by SDS-PAGE and Western blotting after transfection of mRNAs encoding SQT-BH3 constructs; format: cell-based; details: from anti-FLAG and anti-GFP Western blotting
# Source text: The cleavage of PARP-1 was detected by the appearance of a faster-migrating band and concomitant loss of the full-length band by SDS-PAGE and Western blotting. Western blotting with anti-actin antibodies served as a loading control.
# systemic HEL xenografts = assay: Systemic HEL xenografts in SCID mice (AML model); format: in vivo
# Experimental: LNPs comprising the cationic lipid MC3 were tested using the optimal percentage of PEG-lipid and optimal PEG length (1.5% DSPE, C18, as described in Example 8), for in vivo targeted delivery of SQT-PUMA-BH3 in two different in vivo models of acute myeloid leukemia (AML). One model used systemic TF1a xenografts in SCID mice. The other model used systemic HEL xenografts in SCID mice. Each of these models uses a human erythroleukemia cell line. The HEL erythroleukia cell line is described in, for example, Martin, P. and Papayannopoulou, T. (1982) Science 216:1233-1235. The TF1 erythroleukmia cell line (from which TF1a is derived) is described in, for example, Kitamura, T. et al. (1989) J. Cell. Physiol. 140:323-334. Unless otherwise noted, mRNAs were fully modified with N1-methlypseudouridine to avoid stimulating an innate immune response to said mRNAs when administered in vivo.
# In a second set of experiments, HEL cells stably expressing luciferase (HEL-luc cells) were implanted systemically in SCID mice. Tumor growth was measured by whole body bioluminescent imaging (BLI) in anaesthetized animals following SC injection of 150 mg/kg D-Luciferin, in an imaging chamber (Spectrum CT). […] Mice were dosed intravenously at days 28 and 36 and tumor burden was assessed by BLI on days 33, 36, 40 and 43.
# BCL-XL = molecular target: T1, BCL-XL (Homo sapiens, UniProt Q07817); assay: Co-immunoprecipitation after mRNA transfection; format: binding; details: within two hours after mRNA transfection
# T1 construct: endogenous in cells; host or cells: cells transfected with SQT-BH3 mRNA (HeLa by context)
# T1 sequence (Q07817 whole entry): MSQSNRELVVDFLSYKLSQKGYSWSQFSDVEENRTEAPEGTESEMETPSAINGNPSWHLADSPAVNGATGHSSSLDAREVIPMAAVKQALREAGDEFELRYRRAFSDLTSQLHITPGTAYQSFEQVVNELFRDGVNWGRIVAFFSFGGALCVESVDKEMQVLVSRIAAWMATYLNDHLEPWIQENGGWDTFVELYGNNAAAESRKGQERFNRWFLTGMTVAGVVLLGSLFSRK
# Hep3B cells [1] = assay: Sorafenib combination, YOYO-3 apoptosis on IncuCyte ZOOM; format: cell-based
# Experimental: To determine the effect of SQT-BH3 constructs in combination with the protein tyrosine kinase inhibitor Sorafenib on liver cells, 20,000 Hep3B cells/well in a 96 well plate were treated with increasing amounts of sorafenib tosylate (Selleck Chemicals) and transfected with LNPs containing SQT-PUMA-BH3 (68 pM) or SQT-Bad-BH3 (550pM).
# Hep3B cells [2] = assay: Cell death by YOYO-3 with MC3-formulated LNPs; format: cell-based; details: relatively high concentration
# Experimental: The efficacy of mRNAs encoding SQT-BH3 constructs in inducing cell death was tested both in hepatocellular carcinoma cell lines as well as in primary hepatocytes using lipid nanoparticle (LNP)-formulated constructs. Hep3B cells were treated with varying doses (0.78 ng to 50 ng) of MC3-formulated LNPs in the presence of YOYO-3 (Life Technologies), a DNA dye that is taken up preferentially by dead cells that is used to measure the extent of cell death. MC3 lipid nanoparticles included MC3 50%, DSPC 10%, Cholesterol 38.5%, PEG-DMG 1.5%, N:P ˜5.5.
# MCL-1 = molecular target: T2, MCL-1 (Homo sapiens, UniProt Q07820); assay: Co-immunoprecipitation in lysates of transfected HeLa cells; format: binding; details: lysates of HeLa cells transfected with mRNAs
# T2 construct: performed in lysates of HeLa cells transfected with mRNAs encoding SQT-BH3 constructs; endogenous in cells; host or cells: HeLa
# T2 sequence (Q07820 whole entry): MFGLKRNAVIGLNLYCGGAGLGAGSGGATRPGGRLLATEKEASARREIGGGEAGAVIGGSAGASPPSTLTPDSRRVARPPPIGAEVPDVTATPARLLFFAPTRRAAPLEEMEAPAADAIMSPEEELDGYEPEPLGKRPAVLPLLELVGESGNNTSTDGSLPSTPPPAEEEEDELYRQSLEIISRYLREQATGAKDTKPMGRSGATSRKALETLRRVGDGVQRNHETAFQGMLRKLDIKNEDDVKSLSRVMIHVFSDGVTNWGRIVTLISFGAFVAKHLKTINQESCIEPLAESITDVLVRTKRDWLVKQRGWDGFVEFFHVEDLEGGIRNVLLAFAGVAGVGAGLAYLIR
# BCL-2 = molecular target: T3, BCL-2 (Homo sapiens, UniProt P10415); assay: Co-immunoprecipitation after mRNA transfection; format: binding; details: within two hours after mRNA transfection
# T3 construct: endogenous in cells; host or cells: cells transfected with SQT-BH3 mRNA (HeLa by context)
# T3 sequence (P10415 whole entry): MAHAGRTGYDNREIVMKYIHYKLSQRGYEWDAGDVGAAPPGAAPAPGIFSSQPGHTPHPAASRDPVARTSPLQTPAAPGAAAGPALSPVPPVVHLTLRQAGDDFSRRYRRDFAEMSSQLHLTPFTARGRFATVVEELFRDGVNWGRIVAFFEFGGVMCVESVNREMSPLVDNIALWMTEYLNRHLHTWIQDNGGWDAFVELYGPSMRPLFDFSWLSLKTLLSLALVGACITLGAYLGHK
# [3] = tested on: primary mouse hepatocytes; assay: Sorafenib combination in primary mouse hepatocytes; format: cell-based; details: SQT-PUMA-BH3 205 pM or 1100 pM, SQT-Bad-BH3 549 pM or 1100 pM, sorafenib 0-10 uM
# Experimental: Similar combination experiments were performed with primary mouse hepatocytes, treated with SQT-PUMA-BH3 (205 pM or 1100 pM) or SQT-Bad-BH3 (549 pM or 1100 pM) in combination with sorafenib (0-10 μM). […] Thus, normal primary liver cells are spared by the combination treatment, indicating the combination treatment can selectively kill liver cancer cells over normal liver cells.
# HepG2 cells = assay: Cell death by YOYO3 with MC3 LNPs; format: cell-based
# Hep3b xenografts = assay: Efficacy in SCID mice bearing subcutaneous Hep3B xenografts; format: in vivo; details: SC Hep3B, 2mpk or 3mpk weekly (Day 1 and Day 8), mmRNA with miR-122 binding site in MC3 LNPs (1.5% DSPE)
# Experimental: LNPs comprising the cationic lipid MC3 were tested using the optimal molar percentage of PEG-lipid and optimal PEG length (1.5% DSPE, C18, as described in Example 10), for in vivo targeted delivery of SQT-PUMA-BH3.
# SCID mice were dosed weekly (Day 1 and Day 8) over a two week period with mmRNA encoding SQT-PUMA-BH3 (comprising a miR-122 binding site), as described above.
molecule,measurement,setting,value
"SQT-PUMA-BH3: mRNA (SEQ ID NO: 49, FLAG) encoding SQT scaffold with PUMA BH3 domain in N-terminus, fully modified with 1-methyl-pseudouridine (nucleic acid, FLAG tag, 1-methyl-pseudouridine; Synthetic SQT-PUMA-BH3 mRNA sequence with FLAG epitope tag) ATGATCCCAAGAGAAGAACAGTGGGCACGCGAAATTGGAGCTCAACTCAGACGGATGGCCGACGACCTGAACGCCCAGTACGAGCGGCGGGGACTCTCAGAAGCGAAGCCTGCCACCCCCGAAATCCAGGAAATCGTCGACAAGGTCAAGCCGCAGCTTGAGGAAAAGACCAACGAGACTTACGGAAAACTGGAGGCCGTGCAGTATAAGACCCAAGTGTTGGCCTCCACCAACTACTACATTAAGGTCCGCGCCGGCGATAACAAGTACATGCACCTGAAGGTGTTCAATGGTCCTCCGGGACAGAACGCGGACAGGGTGCTGACTGGCTACCAAGTGGACAAGAACAAGGACGACGAGCTGACGGGCTTCGACTACAAGGATGATGATGACAAA",tumor growth inhibition (TGI),Hep3B SC tumors,28%
same,cell death of transfected cells,HeLa cells,underwent cell death
same,"tumor growth inhibition (TGI), BLI","systemic HEL xenografts; 1.5 mg/kg IV at days 28 and 36, by days 40 and 43",exhibited greater tumor growth inhibition (TGI) as compared to the mice treated with the PBS or GFP controls
same,"tumor growth inhibition (TGI), BLI","systemic HEL xenografts; 3 mg/kg IV at days 28 and 36, at day 33",already exhibited significantly greater tumor growth inhibition than the mice treated with the PBS or GFP controls
same,interaction with BCL-XL by co-immunoprecipitation,BCL-XL,able interact
same,nature of combination effect with sorafenib,Hep3B cells [1]; SQT-PUMA-BH3 68 pM or SQT-Bad-BH3 550pM,synergistic effect
same,"apoptosis (YOYO-3), combination with sorafenib vs sorafenib alone","Hep3B cells [1]; SQT-PUMA-BH3 68 pM or SQT-Bad-BH3 550pM in LNPs, increasing sorafenib tosylate",increased apoptosis of the liver cells as compared to treatment with sorafenib alone
same,apoptosis and cell death (YOYO-3),Hep3B cells [2],both induced apoptosis and cell death; also recorded: kills Hep3B cells at higher concentrations
same,"efficacy and timing of cell killing, comparison",Hep3B cells [2],showed a modest increase in both the efficacy and timing of cell killing compared to SQT-Bim-BH3
same,co-immunoprecipitation of MCL-1,MCL-1,able to co-immunoprecipitate
same,interaction with BCL-2 by co-immunoprecipitation,BCL-2,to a lesser extent
same,apoptosis in combination with sorafenib,[3],"neither SQT-BH3 construct, in combination with sorafenib, caused apoptosis"
same,cell death (YOYO3 staining),HepG2 cells,lead to cell death; also recorded: kills HepG2 cells
same,tumor growth inhibition (TGI),Hep3b xenografts,significantly greater TGI than the mice treated with PBS alone
